Article PMC8533110, “Feeling the Heat: The Campylobacter jejuni HrcA Transcriptional Repressor Is an Intrinsic Protein Thermosensor” (Biomolecules, 2021)

Biological target: T1, GST-HrcA fusion protein (C. jejuni NCTC11168 HrcA repressor fused to glutathione S-transferase) (C. jejuni NCTC 11168, UniProt Q9PPG2 1-264)
T1 construct: HrcA heat-shock transcriptional repressor of Campylobacter jejuni NCTC 11168; also called heat-shock repressor HrcA
T1 sequence (looked up): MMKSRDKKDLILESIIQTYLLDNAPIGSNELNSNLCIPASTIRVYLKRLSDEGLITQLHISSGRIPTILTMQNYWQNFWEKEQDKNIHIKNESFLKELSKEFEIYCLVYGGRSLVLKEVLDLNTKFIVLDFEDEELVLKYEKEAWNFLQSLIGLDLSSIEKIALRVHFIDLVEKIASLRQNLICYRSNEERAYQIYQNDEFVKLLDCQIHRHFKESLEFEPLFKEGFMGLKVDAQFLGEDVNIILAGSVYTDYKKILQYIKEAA
Experiment: pull-down; GST-HrcA on glutathione-agarose as bait, incubated 16 h at 4 °C with pre-cleared C. jejuni NCTC11168 cytoplasmic extract in Res buffer (10 mM Tris-HCl pH 7.5, 100 mM NaCl, 20 mM KCl, 1 mM EDTA, 0.01% NP-40); GroEL detected by anti-GroEL immunoblot; GST alone as control bait
Conditions: one partner purified

B1: GroEL chaperonin of C. jejuni (natural protein, UniProt O69289 1-545, looked up)
chain: MAKEIIFSDEARNKLYEGVKKLNDAVKVTMGPRGRNVLIQKSFGAPSITKDGVSVAKEVELKDSLENMGASLVREVASKTADQAGDGTTTATVLAHAIFKEGLRNITAGANPIEVKRGMDKACEAIVAELKKLSREVKDKKEIAQVATISANSDEKIGNLIADAMEKVGKDGVITVEEAKSINDELNVVEGMQFDRGYLSPYFITNAEKMTVELSSPYILLFDKKITNLKDLLPVLEQIQKTGKPLLIIAEDIEGEALATLVVNKLRGVLNISAVKAPGFGDRRKAMLEDIAILTGGEVISEELGRTLESATIQDLGQASSVIIDKDNTTIVNGAGEKANIDARVNQIKAQIAETTSDYDREKLQERLAKLSGGVAVIKVGAATETEMKEKKDRVDDALSATKAAVEEGIVIGGGAALIKAKAKIKLDLQGDEAIGAAIVERALRAPLRQIAENAGFDAGVVVNSVENAKDENTGFDAAKGEYVNMLESGIIDPVKVERVALLNAVSVASMLLTTEATISEIKEDKPTMPDMSGMGGMGGMGGMM
notes: GroEL (60 kDa chaperonin) of Campylobacter jejuni NCTC 11168, endogenous protein detected by anti-GroEL immunoblot; Only GroEL was detected in the pull-down; also called GroE chaperonin; source: endogenous, cytoplasmic protein extract of C. jejuni NCTC11168 wild type
  fold intensity of the GroEL band against the GST control pull-down: 6.2 fold
